From the DeepSol protein solubility set

Test: soluble on expression in E. coli; label from the status in PepcDB or PDB records

Sequence | soluble on expression in E. coli
MSNDDNVELTDGFHVLIDALKMNDIDTMYGVVGIPITNLARMWQDDGQRFYSFRHEQHAGYAASIAGYIEGKPGVCLTVSAPGFLNGVTSLAHATTNCFPMILLSGSSEREIVDLQQGDYEEMDQMNVARPHCKASFRINSIKDIPIGIARAVRTAVSGRPGGVYVDLPAKLFGQTISVEEANKLLFKPIDPAPAQIPAEDAIARAADLIKNAKRPVIMLGKGAAYAQCDDEIRALVEETGIPFLPMGMAKGLLPDNHPQSAAATRAFALAQCDVCVLIGARLNWLMQHGKGKTWGDELKKYVQIDIQANEMDSNQPIAAPVVGDIKSAVSLLRKALKGAPKADAEWTGALKAKVDGNKAKLAGKMTAETPSGMMNYSNSLGVVRDFMLANPDISLVNEGANALDNTRMIVDMLKPRKRLDSGTWGVMGIGMGYCVAAAAVTGKPVIAVEGDSAFGFSGMELETICRYNLPVTVIIMNNGGIYKGNEADPQPGVISCTRLTRGRYDMMMEAFGGKGYVANTPAELKAALEEAVASGKPCLINAMIDPDAGVESGRIKSLNVVSKVGKK | soluble
MSNEDSLPPFTLFGLDDVENYGLVTEADNSLPLDIHNQVFQLVEKGNQSFKESRFEEAISSYSKANSIKPLDPIVLGNRSAAYIRFGQYLKQRSASISEYKPLNGFDMSMLGELALKDADKLMSLQSSLVKSYITKACALMLLERYEVARDTILSGLQIDPFSGPLRSNLQELEKVMPNSMRKTHGMAERSDDFDCTVCLKLLYEPATTPCGHTFCRSCLFQSMDRGNKCPLCRTVIFMTPRTCAVSVTLNNIIEKNFPEEYAERKSEQDTLVHLGNESMPLFVMDVIIPCQKLSLHIFEPRYRLMVRRIMEGNHRMGMVALDSATGSPVDVACEVEITECDPLPDGRFVLELESHRRCRIVKAWDQDGYRVAEVEWVKDIPPQSEQGKADLRELTTSAASFARSWLDRAKEAARQGDRRRLEILLNVESMIPTPQDPERFSFWLATLTDRRPSERLELLRLQDTGEVLDYRLVQIARQISLFHQSLSFDC | not soluble
MSNKLESYRSEIVSLNHQILDLLSKRGELAQKIGEEKLKQGTRIYDPQREKEMLNDLIDSNKGPFNDNTIKQLFKEIFKASTDLQKSENEKHLYVSRKLKPEDTIVTFDNGGIIGDGNKSFVFGPCSVESFEQVEAVAKNLHAKGEKFIRGGAFKPRTSPYDFQGLGVEGLKILKQIKDKYDLNVVSEIVNPNDFEVADEYLDVFQIGARNMQNFELLKEAGRTKKPILLKRGLSATIEEFVYAAEYIASQGNQNIILCERGIRTYEKATRNTLDISAVPILKQGTHLPVMVDVTHSTGRKDIMLPTAKAALAVGADGVMAEVHPDPSVALSDAGQQMDLDEFQAFYDELKPLADLYNAKKLK | not soluble
MSNLEIKQGENKFYIGDDENHALAEITYRFVDNNEINIDHTGVSDELGGQGVGKKLVKAVVEHARENHLKIIASCSFAKHMLEKEDSYQDVYLG | soluble
MSNLVLSLDISTSGTGWALFKGSDLIQSGVLKHKSKSYFERGRYMASQLRLIQSRALKKYDCYFSTIAVEKNSVMGPNQQSMLKIGIVTGIILGRLIADNVVFINVSTWRKYWKFSYKDRSKKSMKLQSKIKVEQEFNKSVKDDEADAILIGSYYVNQGYLDELETHDYY | soluble
MSNMEPPPPMFPRSRIYHSYYSEEKTFSAPSANSQQGTQLPSKVYNKGLKDNDIEGLLSSLSIDELEDLNNDFDPDNSMLPPSQRCRDQTDKEPTGPYKRDNLLKFLEDKAKTEKDWEDVCPYTPGQKRGKVYDSDSGRNSEEPENGKMEMPIEIDLDDDEEELECALVTAPEKDLVDLAGILGMHNVLNQPQYYNALKGKTQDESTGTTFNGIMQSYVPRIVPDEPDNDTDVESCINRLREDDTDLKEVNINNMKRVSKERIRSLIEAACNSKHIEKFSLANTAISDSEARGLIELIETSPSLRVLNVESNFLTPELLARLLRSTLVTQSIVEFKADNQRQSVLGNQVEMDMMMAIEENESLLRVGISFASMEARHRVSEALERNYERVRLRRLGKDPNV | soluble
MSNNNSGSSNQLLVRGAEQALDQMKYEIAQEFGVQLGADATARANGSVGGEITKRLVSLAEQQLGGGVTR | soluble
MSNRNLRSSTNSEFSEGQHQTPSSDSSGHGEDQPQASPGPNKKSHTPKKNISKGAVLHEKPMTVMVLTATEPFNYKEGKENMFHATVATESKYYRVKVFNMDLKEKFTENQFITISKYFNSSGILEINETATVSEAAPNQMFEVPKNIIRSAKETLKISKIKELDSGTLIYGVFAVEKKKVNDKSITFKIKDNEDNIKVVWDKEQHNINYEKGDKLQLFSFHLRKGNGKPILHSGNHSFIKGEKLLKESFEGDGYHKGPKQVVALKATKLFTYDSIKSKKMFHATVATDTEFFRVMVFEENLEKKFIPGNTIALSDYFGMYGSLAIHEYSSVSEVKSQNKEDSSSSDERPIEHLKICDLHLQTEERLVDGEFKVYRKSSGNNCICYGIWDDTGAMKVVVSGQLTSVNCEIGNTIRLVCFELTSNADEWFLRATRYSYMEVIMPEK | not soluble
MSNVMDLNLIQTFLVVAEFQSYTKAAEQLGLTQPAVSAAIKRLEQVVDKQLFVKKGRGITLTSAAYQLLPQFEQAVSIIDNAIMEKKHFEVCCSEILLHIMSPIKNAIFYESPPEKYILFELLRQQKVDLVIDTVVTKDAAFVMEEAYEEKAVIICREQHPRIQGTLSKEQFYDETHCLFSGKWNNMSGFEQLAQETILER | not soluble
MSPEGAERYDRNCDHQFQKGHVLIEMMGIKKGDFVLDVGCGTGRQALNVAGIIGPAGKLTGIDPSSYRIELARKKFEGDSSGNVRFLVRQAENLQDIPDNSINHAYFCSSFHWVDDKKTALNEIFRVLRPGGKVGMTTLDRNSPNTMKALIDPILAKFGIERRHEWHRGMKKVTAPELHDLLSGAGFTSISIEPRAVPRKYNSPEEFLQHPEEKDSSRGILRDISNETLEKLRQEITEEFRKAQTPEDIGFGNITLFAIATKAQEGLEHHHHHH | not soluble
MSPVVSEASPERWDDETDVLVIGSGAGGLSAALFAAQAGLRVLICEKLAYVGGTTATSGGGIWVPGTKAGLAAGDTLEAARTYLKALLGDFYQEEVIDTYLATGGKVIDFLNENTEVKFDLSSWPDYRSSLPGGATRGRSLFPQPFDGKKLGRNFSLLHPPLHRLMVLGGLMLGPEEVHDFLRPFSSPRALMRVLRKLLRYGMDRIRYARGTDLRSGNALAARLLYSVDKLGCRILTQADLESLAIDHDRVIGATVVVGGVPKRIRASKAVLLATGGFAHNQEMLRRYGPATPHRFSLCNPACTGAGIQAALDAGASVDRELSSVGFWTPASASREKNGADTPVIYSYLDRGRPGVIAVNEQGERFVNEANSYHDIVTAIFANGGADGKPFYFITDREFVRRHGLGLIRPWPWNRSLRPWIRRGYITVASTLDKLGPKIGIDPGALAAAVQRHNQSARTGQDPDFHKGASAYNRMFGHNMIWPNPNLAPIETPPFVALRIHPATIGTAMGLKTSASGQALNAAGQPISGLYACGNDQASPFRGFYPGGGSTLGPAIVGAYLAVQSLSKQLEHHHHHH | not soluble
MSQAAFVNPSILTWSRERAGLSAAQVARKLPVKPERVEEWESGEARPTFLQAQKWASVAHVPFGFLFLLQPPVEQLPLPDLRTVGNSAPLRPSLELLDTVKDAIRKQDWYLEYLHVQERQPLPFVGRFDSRTPVKTVVSDIRQTLGVDPEKSRLDYDKYSRALIDAAEVAGVLVMRSGIALGNTHRKLEVSEFRGFAISNPLAPVVFINSSDAPTARLFTLMHELAHIWIGSSGVSDAGTANGREEERFCNAVAGEFLVPEALFRTVWSASIEWESNLATLATRFHVSKLVIGRRAMDLGYVTQEQYGAYYQKILKAFRDEKGGAEDYYRNATAKNSTRLSKAVLTETLSGRMLLREAGNLLGVQPAKLRTLAAEHL | not soluble
MSQANRTNGLVDYKELETNILSSIQEGKPLTGRDGALTPFIKRLLEASLEGEIESHMSAKSEENNRRNGRNAKTLRTSAGSFELLTPRDREGNFEPQIVKKRQTSLHPELEAKVLSTYASGMGYRDIASHVEEIYDHKISAAEISSITDKLLPIINEWRSRPLQSVYPIVFMDGMFFKVKEDGHCVSKCMYNILGINQNGRKEVLGFYLAESEGATFWLGVLNDLKERGVEDILIACIDGLKSFPTAINSVFPSAEVQLCIVHQIRNSLKYVSSKDVKVFMNDLKKIYRASSKEIAENYLLELEEKWGEKYPLVIKSWQNNWENLSSYFKYSGPVRKLIYTTNPIEGLHRQIRKFTKTKGSFTSTNALYKQVYCAIKKVEQKWIMALPNWALTMSQLDIFFPGRLKIELN | soluble
MSQEIYDYANQLERAVRALPEYQKVLEVKEAIQADVSASELFDEFVAMQEKIQGMMQSGQMPTAEEQTSIQELSQKIEANDQLKAYFEAQQALSVYMSDIERIVFAPLKDLVK | not soluble
MSQHNEKNPHQHQSPLHDSSEAKPGMDSLAPEDGSHRPAAEPTPPGAQPTAPGSLKAPDTRNEKLNSLEDVRKGSENYALTTNQGVRIADDQNSLRAGSRGPTLLEDFILREKITHFDHERIPERIVHARGSAAHGYFQPYKSLSDITKADFLSDPNKITPVFVRFSTVQGGAGSADTVRDIRGFATKFYTEEGIFDLVGHNTPIFFIQDAHKFPDFVHAVKPEPHWAIPQGQSAHDTFWDYVSLQPETLHNVMWAMSDRGIPRSYRTMEGFGIHTFRLINAEGKATFVRFHWKPLAGKASLVWDEAQKLTGRDPDFHRRELWEAIEAGDFPEYELGFQLIPEEDEFKFDFDLLDPTKLIPEELVPVQRVGKMVLNRNPDNFFAENEQAAFHPGHIVPGLDFTNDPLLQGRLFSYTDTQISRLGGPNFHEIPINRPTCPYHNFQRDGMHRMGIDTNPANYEPNSINDNWPRETPPGPKRGGFESYQERVEGNKVRERSPSFGEYYSHPRLFWLSQTPFEQRHIVDGFSFELSKVVRPYIRERVVDQLAHIDLTLAQAVAKNLGIELTDDQLNITPPPDVNGLKKDPSLSLYAIPDGDVKGRVVAILLNDEVRSADLLAILKALKAKGVHAKLLYSRMGEVTADDGTVLPIAATFAGAPSLTVDAVIVPCGNIADIADNGDANYYLMEAYKHLKPIALAGDARKFKATIKIADQGEEGIVEADSADGSFMDELLTLMAAHRVWSRIPKIDKIPA | soluble
MSQLSFADVFNMAREAADNSPVIQAGQQIAEMVPTVQRMMSEQYSRSRFIRVFKDTGRHLGRWEVFSDFLSLAASELDMARIRTPESMENCRKICARYGATDIANMQEMFCLMVCALEAKFHDFLGAIFMELELGDNFRGQYFTPYSVQCLMARMLMPGVRDTIRREGIATVSDPACGAAGMLIAYAECLLEADINPSMHMFGSCIDIDPVAADMAFIQLSLLGIAAEVVTGNTLTMQYRRVRYTPVYYLNAFEKRLADLRRFRAMRDFLRGIQEAA | not soluble
MSQPCPHCGFQFNCICSLVPKLTSKHEILLLMHPNELTRDTNTGQLLQHCQLNVEQAIWDRKQPPAELLTRLANPSLYPVILFPSEESITLEHVEMQSQQQAKMPLYIILDATWQEARKMINKSRWLEGIPTMGLSALADSQYQLRRNQQQGNLCTFEVAAHLLGQLGEQDNQQQMHTFFTHYLALFQAEKSGHALKSSPRSLEAAALEHHHHHH | not soluble
MSQQHDYVIGKNAVIETLKSDRKLYKLWMAENTVKGQAQQVIELAKKQGITIQYVPRKKLDQMVTGQHQGVVAQVAAYEYAELDDLYKAAEEKNEQPFFLILDELEDPHNLGSIMRTADAVGAHGIVIPKRRAVGLTTTVAKASTGAIEHIPVARVTNLARTLEEMKERGIWVVGTDASAREDFRNMDGNMPLALVIGSEGKGMGRLVKEKCDFLIKLPMAGKVTSLNASVAAGLLMYEVYRKRNPVGE | not soluble
MSQSNLIQTDRFVLSETERSSIEHEMHHYEDPRAASIEALKIVQKQRGWVPDGAIPAIGEVLGIPASDVEGVATFYSQIFRQPVGRHIIRVCDSMVCYIGGHESVVGEIQKQLGIGLGQTTADGRFTLLPVCCLGNCDKAPALMIDDDTHGDVRPDGVAKLLEAYV | not soluble
